Numbered stars: 1 amine (or outer) side, 2 acyl side, 3 side chain; on linkers, the order of the positions; unused ones are H or OH. Square brackets hold non-standard residues; d marks the D form. Side chains are listed from the residue outwards. Ends that are not written are not given here. * marks the point of attachment. X1 = 4‑(16-(1H-tetrazol-5-yl)hexadecanoylsulfamoyl)butanoyl, O=C(CCCCCCCCCCCCCCCc1nn[nH]n1)NS(=O)(=O)CCCC(=O)*; C18 diacid = O=C(O)CCCCCCCCCCCCCCCCC(=O)*; C16 diacid = O=C(O)CCCCCCCCCCCCCCC(=O)*; γGlu = O=C(O)[C@H](CCC(=O)[*:2])N[*:1]; NMeA = CN[C@@H](C)C(=O)O; AEEA = NCCOCCOCC(=O)O
Experiments:
human GLP-1 receptor [1] = biological target: T1, human GLP-1 receptor (human, UniProt P43220 24-463); assay: SPA, displacement of 125I-GLP-1(7-36)NH2 from hGLP-1R membranes, 0.005% HSA
T1 construct: whole, on cells; Used as purified plasma membranes of the transfected hamster cell line, not as intact cells; also called hGLP-1
Procedure: (§1) 25 ul (micro liter) of test compounds were added to Optiplate. HSA ("high albumin" experiment containing 2% HSA), or buffer ("low albumin" experiment containing 0.005% HSA), was added (50 ul). 5-10 ug protein/sample was added (50 ul) corresponding to 0.1-0.2 mg protein/ml (to be preferably optimised for each membrane preparation). SPA-particles (Wheatgerm agglutinin SPA beads, Perkin Elmer, #RPNQ0001) were added in an amount of 0.5 mg/well (50 ul). […] The plates were sealed with PlateSealer and incubated for 120 minutes at 30° C. while shaking. The plates were centrifuged (1500 rpm, 10 min) and counted in Topcounter.

human GLP-1 receptor [2] = biological target: T1, human GLP-1 receptor; assay: SPA, displacement of 125I-GLP-1(7-36)NH2 from hGLP-1R membranes, 2.0% HSA
Procedure: as §1

Row | IC50 (human GLP-1 receptor [1]) [nM] | IC50 (human GLP-1 receptor [2]) [nM] | Binder
1 | < 600 | ≤ 1000 | HXEGTFTSDVSSYLEGQAAKEFIEHLVQGKGE (HELM PEPTIDE1{H.[Aib].E.G.T.F.T.S.D.V.S.S.Y.L.E.G.Q.A.A.K.E.F.I.E.H.L.V.Q.G.K.G.E.[am]}$$$$V2.0; N-terminus assumed; SMILES CC[C@H](C)[C@H](NC(=O)[C@H](Cc1ccccc1)NC(=O)[C@H](CCC(=O)O)NC(=O)[C@H](CCCCN)NC(=O)[C@H](C)NC(=O)[C@H](C)NC(=O)[C@H](CCC(N)=O)NC(=O)CNC(=O)[C@H](CCC(=O)O)NC(=O)[C@H](CC(C)C)NC(=O)[C@H](Cc1ccc(O)cc1)NC(=O)[C@H](CO)NC(=O)[C@H](CO)NC(=O)[C@@H](NC(=O)[C@H](CC(=O)O)NC(=O)[C@H](CO)NC(=O)[C@@H](NC(=O)[C@H](Cc1ccccc1)NC(=O)[C@@H](NC(=O)CNC(=O)[C@H](CCC(=O)O)NC(=O)C(C)(C)NC(=O)[C@@H](N)Cc1c[nH]cn1)[C@@H](C)O)[C@@H](C)O)C(C)C)C(=O)N[C@@H](CCC(=O)O)C(=O)N[C@@H](Cc1c[nH]cn1)C(=O)N[C@@H](CC(C)C)C(=O)N[C@H](C(=O)N[C@@H](CCC(N)=O)C(=O)NCC(=O)N[C@@H](CCCCN)C(=O)NCC(=O)N[C@@H](CCC(=O)O)C(N)=O)C(C)C, unacylated analogue; also called (8Aib, 30E, 31H, 34Q, 36K, 38E)) [[Aib^8,Glu^30,His^31,Gln^34,Lys^36] GLP-1(7-37)yl-Glu^38-peptide amide]
2 | < 600 | ≤ 1000 | HXEGTFTSDVSSYLEGQAAKEFIAHLVQGRGK (Aib8 (GLP-1(7-37) numbering), unacylated analogue; also called (8Aib, 31H, 34Q, 38K)) [N^α([Aib^8,His^31,Gln^34]-GLP-1-(7-37)-peptidyl)-Lysine]
3 | < 600 | ≤ 1000 | HXEGTFTSDVSSYLEGQAAKEFIAHLVQGRG (Aib8; Lys26 N-epsilon-acylated (side chain as in name); GLP-1(7-37) numbering)
4 | < 600 | ≤ 1000 | HXEGTFTSDVSSYLEGQAAKEFIAHLVQGRG (not fully specified; Aib8; Lys26 N-epsilon-acylated (branched side chain as in name); GLP-1(7-37) numbering)
5 | < 600 | ≤ 1000 | HAEGTFTSDVSSYLEGQAAK(X1)EFIAHLVQGRG [N^ε26-4-[16-(1H-tetrazol-5-yl)hexadecanoylsulfamoyl]butanoyl-[His^31,Gln^34]-GLP-1-(7-37)-peptide]
6 | < 600 | ≤ 1000 | HAEGTFTSDVSSYLEGQAAK([AEEA-AEEA-γGlu-C16 diacid])EFIAHLVQGRG
7 | < 600 | ≤ 1000 | H[NMeA]EGTFTSDVSSYLEGQAAK([AEEA-AEEA-γGlu-C18 diacid])EFIAHLVQGRG [N^8-methyl, …]
